Measurements as given in the domain aggregation screens of Martell et al. (2025).

Assay: soluble fraction after stress (log2 fold change); higher = more stays soluble; pooled small domains, quantitative proteomics
Conditions: stress: pH 4
How it was run: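 How much of each domain stays soluble after acid stress, expressed as a fold change, is used to gauge aggregation propensity. Pooled custom libraries of small domains underwent pH 4 stress before high-throughput quantitative proteomics. A higher log2 value means more of the domain stayed soluble.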

Row | Sequence | soluble fraction (log2)
1 | HMVDKNDLTAIDGIGPFLEKKLNDVGVFTYADIAGWDAAKIEEITQQISFFEGRIEKDDWVGQAQKLIDDQ | -0.704
2 | HMVDKSYIHNQQVASDTWTVQHNLGKYPAVSVADTGNNEVYGDVRHINENTVELKFSHPFSGVAFF | -0.0737
3 | HMVDKTMYDRYAVDDYVRVIDGPLVGTEGRIIELDRETGNVKIEAVFFGRVTTADINFALIEKVD | -1.33
4 | HMVDLDIENYELEDILNLFRLQYNFVEADLKRAYRMALKLHPDKSGLDGEYFRFYMKAYKIVENIFNFRNR | -1.38
5 | HMVDSVIGSVGRVTVDIDNVEALGQVKLGGMEWSARSTSGDPIPAGTEVRVDRVEGVKVFVTPV | -0.203
6 | HMVDVEMLTTVSDHIEAKLLQGILENHGIPSYSVDEESGEYMRVYMGYSIFGEKIYVRASDLLAAQGYL | -1.93
7 | HMVDWTFPVLVKDVVMMGRYGHMGFLRIPGKKDFESVDNALAKVGMVEYAKQQIGELSGGQR | -0.0255
8 | HMVDYSMEDSVWNNKKEHVNEWFDANPEHEGRRVIVDGLFAIGDAQPDLRKRHWSSISVVFADLDNSPIG | -1.01
9 | HMVEDPADNQKAADAVIKKISEIGEVTESSENLIKEARASYDALTDNQKELVTNYDVLVQAEAQLENIKD | -0.703
10 | HMVEEVDYGTFMRMIEEKNIGKVEVRAGEIVFTDKDEKQIYKTGAMEDATLTQRLYESGAEFSKDV | -0.507
11 | HMVEGVSLVEIYVDENSKYNGKLLSEIPKKENTLVIMIQRGEQVIIPHGNIRLESGDMLVVSKTEI | -1.38
12 | HMVEKNALSEEIEGYVNKYGKDRSSLMPVLQAIQRKHSYINDFAQQEVARLLDIHPVEVFSVISFYSFLH | -1
13 | HMVEKRLFPQISDAGKRLDLFLAGALAISRTMVVKIIKDGGVLVNGKAAKASYRLAGDEELLVSYEEP | -0.243
14 | HMVEMPEVGVKVRIEVESHNGSTNFEGIVLHPASKGHLTLKLINGYNASYLIEEIRNLEIIDSS | -0.763
15 | HMVENATPEEREALNDIAMEAMGMVKDGKPTSAREFVQSQNLDNDQKILLWSLLDAPTRSALKTAEK | 0.299
16 | HMVEPIKAPMPGMVLKILVEPGQQIEKGQGVLILEAMKMENVLKSSAAATVKSIKVSEKSAVEKGAILVEL | -0.261
17 | HMVEQVEISILPGEYSDTISQKLLDAGLIDDKAAFSKYINDTNVDNLIQPGTFTVPKGASYEEVAKILT | -1.35
18 | HMVERRVRFTVAPGNAGLRLDLFLTAREIGLSRTQVGRAVDEGQIQVNGRPGRAGRKLKTGDVVAIVLPA | -0.0969
19 | HMVESLTDRELQILSLAAKGYTNKAIAVQLGISDRTVQNHLANTFQKLNAESRTEAVMRAVSLGLISA | -0.422
20 | HMVETVQVVGAGQDIMPGSRINYSSLHYITVPRSYFHEDMFAKNNLVVGRIARAYVAKGEPLLAASLMPK | 0.17
21 | HMVEVPYSEFLKELDAGNVKDVYVSNGESQIQFTKKDQKQWNLSYKTGPIPGDDLVKRLQNADVENFT | -0.282
22 | HMVEVTTDEITRPGAMVSGSVTFSDGVKAIWLIDEYGRPGLEPETPGYQPSESDLSEFEKHLRALLQ | -0.648
23 | HMVEVVDAEKLEERLSKVFSAAVLLEIYNENPAHGKEYAYLFTARKNAVEEMIENGQMKRETWEAK | -1.91
24 | HMVFSKEELLFNSDSLLSLYPNDNKLLETILSEKIDHAVKNNDMSMYKEILVIDPKNPLANYHLLM | 0.17
25 | HMVFTEEERAEYREKMLDAGFDLLKQYGMTHMSVAKITEAAGIGVSTFYNFFSSKEEYVYEVLQYRRRK | -0.392

Row | Sequence | soluble fraction (log2)
26 | HMVGIVQKTFEPTGIAAEELMKTLKSDKSLDFGNVQILATPKSSTSRQVVVVSGRANDVDRVMMVLSNLDS | 0.015
27 | HMVGKIVVPHLEGKPAEMARDILARDGFKSVHEEVLPSAEFGAGRVVRTEPHAGTNVAKTDPVTIFVSVGL | -0.0761
28 | HMVGLTDLQRNVLVQIARGKSRQLISRTLKVTPAEISAALKVAQRRYRVASSTEVIVQALYDKTLSFHEIM | 0.105
29 | HMVIIPNILNKYKGLAFRQLEQVGLKIGDTIYEPNIQRDAVLRMQINGRSVQPGDQVMRFSVVDLVIG | -1.14
30 | HMVINKRELNVLSIYSRGSEKRAIILFPTGQTKLVKVGDTLNGGRVAAIGTTEIRYIKGGNNLVLKIPQ | ≥ 0.43
31 | HMVINVNEIIRRIKELKTFKTDRQVADFLGVSKATVSNWMARNSIDFPLLINKLDGVDLTWLLTGRGTPE | -0.121
32 | HMVIPATPTARRAKIAGLLADRSVRSQGELLTLLADAGIEVTQATLSRDLEALGAVKVRDGRGLVYAVPG | 0.365
33 | HMVIQRQIPPLVTRMLDGLEQFIQLDMPFDLDTRLGNIEAVRANMDRSDVTSAEAYRQVLELYSIELQ | -0.0525
34 | HMVISLREINLIGVYGRPNARRALVRLSNGRYVRVEVGSDLDGGKVTAIGDEALNFVKRGRTYAIQLPA | -0.324
35 | HMVITPESVKEQVLAIISKSPAQGFNYKQISKRLNINDPSERKMVSDILRELSESGTIEEINKGKYRAKV | -0.055
36 | HMVKDYIQVTVNKEPVILKGKKDYIFIDIFNYIEFDLTIPKGSLYLLLNGKNAGYHDKLLDGDVIELGW | -1.63
37 | HMVKLDDLTGQDKASAEAAISNLGLKYSEQQEYSDEIEEGKVTRTDPGAGSTSLKAGDTVTVYISRGPE | -0.348
38 | HMVKLSATVKELLDFVIAKKTVTSSNVSKHFDISAQNASGRLKKLHATGLVLGQKEVAESGGLEFVYRS | -0.208
39 | HMVKLSDGIVEHIKSLIMAGRLKPGDKLPPEREFAATLGVSRTALREAVRTLSLMGLLDARQGEGTFVSG | 0.313
40 | HMVKPQANTIYKEYIKYRANLQNKNEFLSFSEYAKQKHNLEQMSEIMVDANLKEEMLETLKEMS | 0.0548
41 | HMVKSDLVGHRFILVEDVTPKLTPKYHYSGINWKLITTDNLVAGTRVEVIQVDVGKFHIKAIK | -0.82
42 | HMVKSIDEIYNEAVKSLANEDYDAAKKLFNYLINNFSDPDKFPLSLFWLAEIEFSSSNFDASKNYYMQ | -0.225
43 | HMVKSSVTEVISMINALPVTVKPEDKADIISARMAYDTLTEDEKALVTNYEILTAAETRFNELIATT | -0.101
44 | HMVKTIINGEEKDFDAQDFQTFGDFLKKVIPEGQILKSLKINSKDVPIAFIDELKSATVDENITIEMELA | 0.315
45 | HMVLAEPLSERELDILRLLAAGDSNKEIAAVLYITEGTVKNHVTNILGKLDARDRTQAALRARELGL | -0.373
46 | HMVLGDQTFQSASAPKVFFGGDAAYGPKNIITAVAHGHDAAVSIDRFLHGEDVSKRPGPQVNLVS | 0.207
47 | HMVLRPDDVEDSLWREWVSHRKAKRAAVTEGVLKTFRQEATKASFTLADAMRKSIDRGWTGFEAEWVARET | -0.325
48 | HMVLSPAQVRRALMVSGLFTEARVARQLGVPMDLKQILRIILRNTPPQSAMARELESAIDEIESRNAMRD | -0.844
49 | HMVLSTRERMSNILATLKGGHFVNFSDLFTPEEGRLGVVVTFLAMLELIKESLLDIVQHEVLGPIHVKARV | 0.0323
50 | HMVLTGTIKKYNNERGFGFISTSNFGDVFFHIKDFQKGEQPIPGREVYFEVVKKENKKRAIHVYYSD | -0.243

Row | Sequence | soluble fraction (log2)
51 | HMVLVSNYGEVVRKARERKGLDHGSLAMKISEKKSIITSVESGNMKPNEKLIKKLENFLNINLM | -0.471
52 | HMVMIPDLVGETIEDAKDILEGLGFEVEVRSEFPESDWGRPFARVTSLSPSAGQEVAKGTLVIIRSF | -0.144
53 | HMVMLIVMNHTASQADIDKVIEVVSGMGFTAAPIPGGERTAIGVLGNKGYVDDSTIRDLPGVQQAIHVSKP | -0.301
54 | HMVMSVGENIAYFRKKLGLTQEMLSERIGVTAQAVSKWENGVTNPDISLLPRISEALGIGIGDLFD | -0.218
55 | HMVNAVKFAIEKMPYKYSSLLTLKYVMGYSGKEIAEITGLSETNVRQQLLKGRKLLESMLEE | -0.105
56 | HMVNGTPADPYDVLGVESSASPEELRAAWQTLVRQNHPDQLMARGVPLEAVKLAEARLVAINQAWDDLTK | -1.33
57 | HMVNHVGITVSNLERSIQFYEALTGKKIANQDTIGGKRMAQTQGLADTLIKYANLHLDNLNIDLLEYVE | -0.448
58 | HMVNIAVMTVSDTRTEADDKSGSLLVSKIEGDGHVLADRAIITDDVPRIIAKLKEWIESPQVDVVVT | -0.606
59 | HMVNINEVEVSRDLAHAKVFVTFVGDRTDEINTQALKVLNAAQGFLRSRIASNNHMRTTPRIHF | -0.214
60 | HMVNIPEIAKKFGKSTSEVFEQIQIGEKHEMEHTNDPKKARKIALDHLSDDMDYYKKLKKLG | ≥ 0.43
61 | HMVNLKQVELREHHPWVGHKIKELDISRHTLIVMIRRGDNAIVPNGDTLIKSGDIVFVFSKR | -0.839
62 | HMVNPHPVYRSWGLLYVEARDGDSLESIAKEFGFSVKKLAKYNEVPKDYPLEAGDIVYLEKKKK | 0.019
63 | HMVNPIDFYLLFRTELQRLAEHPITVDRLTEVTGLNKLQVLDWLKRAEQDGLVKKLNRPTRYQLN | -0.536
64 | HMVPAMGSLTLIKGGVNLRNAPGGLTIAQLDRGLVLSYTKFVQKDGYTWYLVNSPKGTGYVRSDVVQLGS | -0.3
65 | HMVPDGFDQLTEREYQVAMAVGKGLNNKEIASQLGLGERTVKAHLTTTFEKLHVRDRVQLALIVNRL | -0.404
66 | HMVPDVVGKDYALAQAELEGANLVVAKGSSRYDDTLPAGVVLATDPKVGTVVKPGAKVTVILSK | 0.268
67 | HMVPLSMLTEGQIFRGQVLDITSQGIKIQLNPEQILFARLGEQVELNIGQQMAFQVRENKGDQLIIHPMQN | -1.18
68 | HMVPVQLTPRELQVARLAAHGASSPEIAAELRVSRRTVDNQLGRVYAKLGIAGRAELAAALSRLPVSV | ≥ 0.43
69 | HMVPVSIYAYNKIKTAILNNELMPGEKLVEASLAETLNMSRTPIREALRQLEQEGFVTYYPQKGSIVSH | -0.91
70 | HMVQAQGARIREARVQRGLSQAQLGEPRYSGSYISHIENGRRSPGTDVLAFIAARLGLEPGALDS | -0.164
71 | HMVQIFIPVVHDDHWFLIVFSREEDTFYVLDSLPSLSRISTINGIISTLKEHLQQASVGPQYSVKVLPVK | 0.144
72 | HMVQLAEGERYRRIQEANDFINRQQWPGKAAMGRLKDTEKAQYNLWLDYLDALEAVDTSSAPKINWPVPPE | -0.156
73 | HMVQQAVNMAKPGKLFTGPSPTSKALRDLDAGAMLYPTGEKQGPFWKVQDELGNEGWVAMGLLQLA | -0.0346
74 | HMVQVDNELTEFSVQSITRGIDALGEVTIRVTAPDGGVYTGRGADNDIIVSSTKAYLNALNRLLNDK | -0.552
75 | HMVQYVDFVKRMIEELPWWHRRMLELKYLDGLTYEEIADELQVPVGTVKGTLHRAKELFQEILKNN | -1.71
